In article PMC5945002 one finds stoichiometry N data, which are given here for one substance.

Usually stoichiometry N stands for a count of units in the complex or per binding partner.

The experiment deals with BrvH, flavin-dependent halogenase (predicted gene 12 of the Botany Bay metagenome) (Brevundimonas BAL3 (most likely; gene found in the Botany Bay metagenome)). The experiment in a line: SEC; 16/60 Superdex 200, 10 mM Tris 20 mM NaCl pH 8, 4 °C, flow rate 1 mL/min; last step of the purification for crystallisation. For orientation: In gel filtration, larger molecules generally elute earlier.

For “BrvH, flavin-dependent halogenase (predicted gene 12 of the Botany Bay metagenome) (enzyme)”, the stoichiometry N was 2.
